Experimental data reported in PMC5714172.

Target: MBP-Hsmar1 transposase (human)
Experiment: SEC; Superdex 200 10/300 GL, GF buffer (25 mM HEPES pH 7.5, 200 mM NaCl, 2 mM DTT, 5 mM EDTA, 0.1% Triton X-100 reduced); ^MBPHsmar1 after increasing Factor Xa proteolysis (1 ug protease per 50 ug fusion protein)

## MBP-Hsmar1 transposase (enzyme)
  stoichiometry N: 2
